According to US12612465B2, “Formulations comprising PCSK9 specific monoclonal antibodies” (Amgen Inc., priority 2012, dated 2026):

Assays:
Assay in all cases: 11F1 binding specificity competition assay
[1] = biological target: T1, PCSK2 (Homo sapiens, UniProt P16519); conditions: 0.4 μg/mL 11F1, 0 to 20 μg/mL competitor
T1 construct: purchased R&D Systems
T1 sequence (P16519 110-638): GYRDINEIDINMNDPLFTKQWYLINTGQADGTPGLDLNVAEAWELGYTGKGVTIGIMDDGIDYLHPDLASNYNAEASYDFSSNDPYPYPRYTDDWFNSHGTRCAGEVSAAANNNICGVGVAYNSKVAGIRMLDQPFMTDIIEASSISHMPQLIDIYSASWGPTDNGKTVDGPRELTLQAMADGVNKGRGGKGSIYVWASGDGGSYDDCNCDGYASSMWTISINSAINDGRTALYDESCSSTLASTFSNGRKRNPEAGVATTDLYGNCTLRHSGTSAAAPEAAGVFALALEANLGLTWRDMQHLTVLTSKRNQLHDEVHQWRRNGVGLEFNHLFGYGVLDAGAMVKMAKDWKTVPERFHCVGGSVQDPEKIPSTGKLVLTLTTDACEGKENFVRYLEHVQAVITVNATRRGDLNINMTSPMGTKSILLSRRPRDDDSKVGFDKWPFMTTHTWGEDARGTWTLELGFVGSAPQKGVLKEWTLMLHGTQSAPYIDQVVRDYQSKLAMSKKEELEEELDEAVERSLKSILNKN
Procedure: (§1) Biotinylated PCSK9, diluted in buffer A (25 mM Tris, 150 mM NaCl, 0.1% BSA, 0.05% tween, pH 7.5) was bound to neutravidin coated 96 well plates at a concentration of 0.2 μg/mL, for one hour incubation at room temperature. Separately, 0.4 μg/mL of 11F1 was incubated for one hour at room temperature with various concentrations (ranging from 0 to 20 μg/mL) of either PCSK1, PCSK2, PCSK7, PCSK9 or furin (R&D Systems, Minneapolis, Minn.) (diluted in buffer A w/o tween). Furin inhibitor, at 4.5 μg/mL, was included with all furin containing reactions. The PCSK9 coated streptavidin plate was washed with buffer A and the antibody/proprotein convertase mixture was added to the plate and incubated at room temperature for one hour. After washing, bound antibody was detected by incubation with goat-α-human Fc-HRP (160 ng/mL, diluted in buffer A) (Jackson Laboratories, Bar Harbor, Me.) followed by TMB substrate. The reaction was stopped with 1 N HCl and the absorbance was read at a wavelength of 450 nm on a Spectramax Plus 384 spectrophotometer (Molecular Devices Inc., Sunnyvale, Calif.).
(§2) This assay relied on the ability of proprotein convertase in solution to compete for the binding of 11F1 to plate-captured PCSK9. […] All results were expressed as the mean OD450 value±standard deviation versus concentration of the proprotein convertase. […] Therefore, at the protein concentrations studied, 11F1 binds only to PCSK9 and not to the other proprotein convertase family members tested.

[2] = biological target: PCSK9 (Homo sapiens, UniProt Q8NBP7); conditions: 0.4 μg/mL 11F1, 0 to 20 μg/mL competitor
Procedure: as §1, §2

[3] = biological target: T2, PCSK7 (Homo sapiens, UniProt Q16549); conditions: 0.4 μg/mL 11F1, 0 to 20 μg/mL competitor
T2 construct: purchased R&D Systems
T2 sequence (Q16549 142-785): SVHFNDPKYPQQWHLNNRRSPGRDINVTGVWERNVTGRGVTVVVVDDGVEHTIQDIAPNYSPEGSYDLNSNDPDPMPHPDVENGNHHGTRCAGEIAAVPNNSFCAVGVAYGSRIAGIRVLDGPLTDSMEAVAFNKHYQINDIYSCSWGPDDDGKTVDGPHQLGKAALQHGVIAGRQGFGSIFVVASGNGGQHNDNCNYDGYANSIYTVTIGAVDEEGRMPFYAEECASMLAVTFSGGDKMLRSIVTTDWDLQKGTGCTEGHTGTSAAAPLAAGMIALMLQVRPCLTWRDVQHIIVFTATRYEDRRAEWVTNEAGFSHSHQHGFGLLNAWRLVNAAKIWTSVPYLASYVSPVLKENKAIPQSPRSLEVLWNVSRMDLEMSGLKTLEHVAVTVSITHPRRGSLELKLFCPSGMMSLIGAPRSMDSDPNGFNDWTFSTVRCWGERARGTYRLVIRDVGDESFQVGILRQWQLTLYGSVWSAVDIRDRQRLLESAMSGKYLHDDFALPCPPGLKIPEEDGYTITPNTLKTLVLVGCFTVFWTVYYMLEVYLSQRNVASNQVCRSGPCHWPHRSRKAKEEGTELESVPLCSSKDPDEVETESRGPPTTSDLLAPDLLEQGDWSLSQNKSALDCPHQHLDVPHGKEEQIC
Procedure: as §1, §2

[4] = biological target: T3, PCSK1 (Homo sapiens, UniProt P29120); conditions: 0.4 μg/mL 11F1, 0 to 20 μg/mL competitor
T3 construct: purchased R&D Systems
T3 sequence (P29120 111-753): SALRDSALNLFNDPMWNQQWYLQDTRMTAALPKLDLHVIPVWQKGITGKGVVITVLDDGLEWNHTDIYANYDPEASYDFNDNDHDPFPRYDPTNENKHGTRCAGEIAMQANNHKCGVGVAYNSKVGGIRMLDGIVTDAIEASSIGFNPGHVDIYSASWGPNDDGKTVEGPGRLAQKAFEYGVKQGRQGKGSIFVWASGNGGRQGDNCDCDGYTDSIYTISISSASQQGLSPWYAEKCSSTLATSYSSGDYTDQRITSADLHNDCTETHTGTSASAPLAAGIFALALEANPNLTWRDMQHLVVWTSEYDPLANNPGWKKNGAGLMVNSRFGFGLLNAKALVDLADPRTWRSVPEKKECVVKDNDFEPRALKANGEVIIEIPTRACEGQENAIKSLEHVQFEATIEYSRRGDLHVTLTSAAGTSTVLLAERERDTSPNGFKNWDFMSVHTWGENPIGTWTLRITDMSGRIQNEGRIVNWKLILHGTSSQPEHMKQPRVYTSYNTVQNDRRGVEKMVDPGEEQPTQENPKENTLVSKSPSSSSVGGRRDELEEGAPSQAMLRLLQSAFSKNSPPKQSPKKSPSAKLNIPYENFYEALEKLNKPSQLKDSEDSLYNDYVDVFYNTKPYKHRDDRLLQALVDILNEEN
Procedure: as §1, §2

[5] = biological target: T4, furin (Homo sapiens, UniProt P09958); conditions: 0.4 μg/mL 11F1, 0 to 20 μg/mL competitor, furin inhibitor 4.5 μg/mL
T4 construct: purchased R&D Systems
Procedure: as §1, §2

T4 sequence (P09958 108-794, species assumed): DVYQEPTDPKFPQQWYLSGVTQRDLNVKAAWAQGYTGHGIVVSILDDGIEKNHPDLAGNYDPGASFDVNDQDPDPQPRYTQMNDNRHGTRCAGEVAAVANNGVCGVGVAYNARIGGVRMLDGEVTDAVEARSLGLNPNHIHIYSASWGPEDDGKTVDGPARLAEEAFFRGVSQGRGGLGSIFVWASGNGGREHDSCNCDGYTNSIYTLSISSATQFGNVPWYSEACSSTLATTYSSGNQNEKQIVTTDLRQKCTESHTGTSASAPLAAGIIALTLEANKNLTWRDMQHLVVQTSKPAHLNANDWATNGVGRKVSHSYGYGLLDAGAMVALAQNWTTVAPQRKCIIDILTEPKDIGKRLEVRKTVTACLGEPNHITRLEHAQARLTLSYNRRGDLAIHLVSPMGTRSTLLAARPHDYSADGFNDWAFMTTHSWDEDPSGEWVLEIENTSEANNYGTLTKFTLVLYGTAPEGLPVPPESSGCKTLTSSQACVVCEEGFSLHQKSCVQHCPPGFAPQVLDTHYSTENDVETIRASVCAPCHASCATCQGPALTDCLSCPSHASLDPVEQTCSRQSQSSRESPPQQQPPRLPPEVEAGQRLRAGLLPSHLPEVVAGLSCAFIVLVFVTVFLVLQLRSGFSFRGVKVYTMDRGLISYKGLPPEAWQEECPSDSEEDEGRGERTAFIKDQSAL
PCSK9, sequence (Q8NBP7 153-692): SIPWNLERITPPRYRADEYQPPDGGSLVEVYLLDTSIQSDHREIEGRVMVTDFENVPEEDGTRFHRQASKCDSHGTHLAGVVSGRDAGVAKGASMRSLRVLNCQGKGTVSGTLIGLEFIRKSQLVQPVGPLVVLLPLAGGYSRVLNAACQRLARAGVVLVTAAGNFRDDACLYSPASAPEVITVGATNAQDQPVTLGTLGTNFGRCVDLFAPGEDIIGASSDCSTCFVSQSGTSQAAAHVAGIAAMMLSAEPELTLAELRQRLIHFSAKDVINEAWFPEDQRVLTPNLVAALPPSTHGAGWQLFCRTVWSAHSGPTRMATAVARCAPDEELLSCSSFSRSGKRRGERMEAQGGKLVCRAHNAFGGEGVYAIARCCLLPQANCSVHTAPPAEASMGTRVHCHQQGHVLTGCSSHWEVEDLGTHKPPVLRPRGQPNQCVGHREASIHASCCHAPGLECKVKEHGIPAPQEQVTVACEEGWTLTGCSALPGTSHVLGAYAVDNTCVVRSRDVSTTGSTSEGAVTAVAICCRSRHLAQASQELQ

Q: With “11F1: anti-PCSK9 ABP, light/heavy variable region SEQ ID NO 465/463 [Antibody 11F1]” as the substance, how does the “effect of pre-incubation with PCSK2 in solution on 11F1 binding to plate-captured PCSK9” value [1] read?
A: Its value is “did not significantly impact the binding”.

Q: What about the “effect of pre-incubation with PCSK9 in solution on 11F1 binding to plate-captured PCSK9” value [2] of the same substance?
A: The value was “dose dependently and robustly reduced”.

Q: And the “effect of pre-incubation with PCSK7 in solution on 11F1 binding to plate-captured PCSK9” value [3]?
A: Its value is “did not significantly impact the binding”.

Q: What about the “effect of pre-incubation with PCSK1 in solution on 11F1 binding to plate-captured PCSK9” value [4] of the same substance?
A: Its value is “did not significantly impact the binding”.

Q: What about the “effect of pre-incubation with furin in solution on 11F1 binding to plate-captured PCSK9” value [5] of the same substance?
A: The value was “did not significantly impact the binding”.
